Source: the Human Domainome abundance scans (Beltran et al. 2025)
± gives the uncertainty stated by the source.

B1: POU domain, class 6, transcription factor 2, residues 609 to 663; numbered along this chain, P78424 (parent)
chain: KRRTSFTPQALEILNAHFEKNTHPSGQEMTEIAEKLNYDREVVRVWFCNKRQALK

Variants of: B1
Experiment: abundance fitness (aPCA) (normalised: wild type 0, dead -1); higher = more abundant; growth selection in yeast, the domain comes from the species named
Settings: Homo sapiens

Abundance fitness: each site, then its substitutions
K50: H -0.444 ± 0.29 | M -0.184 ± 0.17 | L -0.834 ± 0.11 | E -0.156 ± 0.14 | G -0.491 ± 0.074 | F -1.15 ± 0.31 | S -0.21 ± 0.088 | V -0.638 ± 0.077 | Y -1.01 ± 0.3 | W -0.836 ± 0.15 | I -0.916 ± 0.19 | C -0.662 ± 0.25 | P -1.19 ± 0.36
K55: N -0.186 ± 0.27 | R 0.001 ± 0.31 | V -0.304 ± 0.5 | G -0.226 ± 0.42
E41: T -0.082 ± 0.093 | Y -0.321 ± 0.15 | I -0.504 ± 0.18 | W -0.319 ± 0.078 | G -0.186 ± 0.064 | C -0.119 ± 0.12 | A -0.218 ± 0.066 | P -0.879 ± 0.14 | V -0.496 ± 0.071 | N -0.185 ± 0.23 | H -0.29 ± 0.2 | D -0.104 ± 0.14 | F -0.743 ± 0.14 | Q -0.216 ± 0.099 | K 0.021 ± 0.13 | M -0.42 ± 0.12 | L -0.617 ± 0.07 | S -0.153 ± 0.064 | R -0.107 ± 0.067
V45: D 0.094 ± 0.23 | L 0.02 ± 0.099 | R 0.018 ± 0.098 | M 0.07 ± 0.48 | K -0.149 ± 0.15 | F -0.243 ± 0.12 | G 0.03 ± 0.088 | E -0.194 ± 0.23 | P -0.706 ± 0.18 | A -0.029 ± 0.2 | Q -0.296 ± 0.18 | W -0.055 ± 0.14 | Y -0.653 ± 0.29 | H -0.141 ± 0.17 | I -0.068 ± 0.13
R51: Q -0.031 ± 0.16 | D -0.457 ± 0.21 | A -0.094 ± 0.11 | M -0.377 ± 0.2 | K -0.026 ± 0.14 | V -0.165 ± 0.094 | I -0.226 ± 0.17 | P -0.636 ± 0.15 | W -0.295 ± 0.12 | S -0.174 ± 0.098 | T -0.243 ± 0.16 | C -0.316 ± 0.15 | L 0.011 ± 0.091 | N -0.074 ± 0.19 | Y -0.097 ± 0.13 | F -0.331 ± 0.14 | E -0.337 ± 0.15 | H -0.385 ± 0.18
Q52: K 0.018 ± 0.11 | C -0.126 ± 0.15 | H 0.022 ± 0.14 | V -0.161 ± 0.094 | I 0.045 ± 0.14 | T -0.059 ± 0.12 | Y -0.339 ± 0.15 | F -0.171 ± 0.13 | D -0.119 ± 0.12 | W -0.244 ± 0.1 | M -0.188 ± 0.12 | E 0.117 ± 0.18 | G -0.223 ± 0.1 | P -0.218 ± 0.098 | A -0.006 ± 0.1 | L -0.005 ± 0.071 | S -0.175 ± 0.08 | N 0.014 ± 0.17
A53: E -0.105 ± 0.27 | M 0.034 ± 0.19 | Q 0.042 ± 0.13 | P -0.392 ± 0.12 | I -0.11 ± 0.14 | T -0.157 ± 0.13 | R -0.194 ± 0.096 | L -0.086 ± 0.098 | H 0.012 ± 0.24 | K -0.167 ± 0.27 | V -0.2 ± 0.13 | S 0.005 ± 0.099 | Y -0.018 ± 0.21 | N 0.046 ± 0.31 | W -0.089 ± 0.14 | F -0.267 ± 0.16 | C -0.215 ± 0.12
N49: S -0.061 ± 0.096 | A -0.038 ± 0.14 | R -0.157 ± 0.084 | K 0.008 ± 0.13 | L -0.292 ± 0.1 | V -0.138 ± 0.1 | E 0.177 ± 0.16 | F -0.292 ± 0.19 | H -0.18 ± 0.2 | I -0.226 ± 0.27 | G -0.13 ± 0.11 | Q 0.03 ± 0.24 | Y -0.218 ± 0.14 | M -0.177 ± 0.11 | P -0.683 ± 0.25 | W -0.339 ± 0.11 | D -0.152 ± 0.16
R40: Y -0.087 ± 0.11 | G 0.069 ± 0.071 | P -0.003 ± 0.13 | K 0.001 ± 0.092 | D 0.186 ± 0.12 | F 0.041 ± 0.088 | T -0.011 ± 0.091 | C -0.064 ± 0.1 | V -0.013 ± 0.073 | L 0.061 ± 0.062 | S -0.034 ± 0.069 | Q -0.12 ± 0.12 | A 0.024 ± 0.084 | W -0.014 ± 0.089 | E 0.017 ± 0.089 | I -0.029 ± 0.12
L54: F -0.199 ± 0.12 | H -0.159 ± 0.22 | D -0.182 ± 0.31 | A -0.002 ± 0.14 | C -0.258 ± 0.36 | M -0.106 ± 0.19 | K -0.159 ± 0.16 | E -0.133 ± 0.13 | V -0.101 ± 0.12 | P 0.042 ± 0.17 | Q -0.175 ± 0.34 | Y -0.417 ± 0.47 | R -0.103 ± 0.12 | T -0.217 ± 0.22 | I -0.242 ± 0.25 | S -0.065 ± 0.1
W46: Q -0.827 ± 0.43 | Y 0.032 ± 0.23 | G -0.707 ± 0.11 | C -0.997 ± 0.28 | H -0.53 ± 0.42 | N -0.891 ± 0.23 | I -0.828 ± 0.41 | V -1.02 ± 0.13 | R -0.753 ± 0.1 | F -0.405 ± 0.29 | D -0.447 ± 0.26 | K -0.983 ± 0.43 | P -0.801 ± 0.26 | E -0.91 ± 0.21
